Residue numbers refer to the chain shown, from its start. Names may count otherwise.
B1: S8-ATX1E1 (antibody, V domains shown)
VH: EVQLVESGGGLVQPGRSLRLSCAASGFMFDDYVMHWVRQAPGKGLEWVSGINWNSDNIGYADSVKGRFTISRDNAKNSLFLQMNSLRVEDTALYYCAKDIDAAAFDYWGQGTLVTVSS
VL: DIVMTQSPLSLPVTPGEPASISCRSSQSLLHSNGYSYLAWYLQKPGQSPQLLIYLVSNRASGVPDRFTGSGSGTDFTLKISRVEAEDVGVYYCMQALQTPWTFGQGTKVEIK
notes: Only variable domains are tied to the name in the text; Produced as recombinant human IgG1 and IgG4 (S228P), kappa light chain; also called Sig8-1E1
B2: S8-ATX1B6 (antibody, V domains shown)
VH: QVQLVESGGGVVLPGRSLRLSCAASGFTFNIYGMHWVRQAPGKGLEWVAVISYDGNNKEYADSVKGRFTISRDSSRNTLYLQMNSLRAEDTAVYYCAKRGYGSSSLEFWGQGTLVTVSS
VL: DIQMTQSPSSLSASVGDRVTITCRSSQDIRNDLGWYQQKPGKAPKRLIYASSNLQSGVPSRFSGSGSGTEFTLTISSLQPDDFATYYCLQHNTYPYTFGQGTKLEIK
notes: Only variable domains are tied to the name in the text; also made as IgG4 (S228P); also called Sig8-1B6; 11B6
B3: S8-ATX1B4 (antibody, V domains shown)
VH: B2 VH with L13Q, N30S, E59D, A61T, S74N, R76K, R87T
VL: B2 VL with S25A, S51T, N53S, G66R, T69A, I75V, D81E
notes: Only variable domains are tied to the name in the text; Produced as recombinant fully human IgG1 and IgG4 (S228P) with a kappa light chain; also called Sig8-1B4; 11B4
B4: S8-ATX2F10 (antibody, V domains shown)
VH: EVQLVESGGDLVKSGGSLRLSCAASGFTFSDAWMSWVRQAPGKGLEWVGRIQSKTDGGTTDYVAPVKGRFTISRDDSKDTLYLHMNSLTTEDTAVYYCTTDLYYYGSGSYFLGQGTLVTVSS
VL: DIQMTQSPSSLSASVGDRVTITCRASQNIITYLNWYQQKPGKAPKLLIYAASSLQSGVPSRFSGSGSGTDFTLTISSLQPEDFAIYHCQQSYNVPTTFGQGTKLEIK
notes: Only variable domains are tied to the name in the text; also IgG4 (S228P); also called Sig8-2F10; S8-2F10
B5: S8-ATX2A3 (antibody, V domains shown)
VH: QVQLQESGPGLVKPSETLSLTCTVSGASISGYYWNWIRQPPGKGLEWIGYIHYSGTTNYNPSLKSRITISLDTSENQFSLRLSSVTAADTAVYYCARDWYTGYDWEGFDYWGQGTLVTVSS
VL: QSVLTQPPSVSGAPGQRVSFSCTGTSSNIGTGFDVHWYRQLPGTAPKVLIYNNNNRPSGVPDRFSASKSGTSASLAITGLQAEDEADYYCQSYDSSLSGSVFGGGTRLTVL
notes: Only variable domains are tied to the name in the text; IgG1 format in ADCC and eosinophil assays; also called Sig8-2A3
B6: S8-ATX1E4 (antibody, V domains shown)
VH: QVQLVQSGSELKKPGASVKVSCKTSGYTFTSYAMNWVRQAPGQGLEWMGWINTNTGNPTYAQGFRGRFVFSLDTSVSTAYLQISSLKAEDTAVYYCARDKYSSSWYWFDSWGQGTLVTVSS
VL: DIQMTQSPSSLSASVGDRVTITCRPSQNISSYLNWYQQKPGKAPKLLIYAASSLRSGVPSRFSGSGSGTDFTLTVSSLQPEDFANYYCQQSYSTPYTFGRGTKLEIK
notes: Only variable domains are tied to the name in the text; Produced as recombinant human IgG1 and IgG4 (S228P), kappa light chain; also called Sig8-1E4
B7: S8-ATX1H4 (antibody, V domains shown)
VH: QVQLVQSGTEVKYPGASVKVSCKASGYTFIDYGISWVRQAPGQGLEWMGWISAYNGNTDYAQKLQGRVTMTTDTSTSTAYMDLRSLRSDDTAVYYCAREGEGYCTYGVCPSFDYWGQGTLVTVSS
VL: EIVLTQSPGTLSLSPGERATLSCRASQSVSSSYLAWYQQKPGQAPRLLIYGASTRGTGIPDRFSGSGSGTDFTLTISRLEPEDFALYYCQQYGSSPYTFGQGTKLEIK
notes: Only variable domains are tied to the name in the text; Produced as recombinant human IgG1 and IgG4 (S228P), kappa light chain; also called Sig8-1H4
B8: negative control mAb 13R4 (recognizing E. coli beta-galactosidase) (antibody, V domains shown)
VH: EVQLVESGGSLVKPGGSLRLSCAASGFTFSNYSMNWVRQAPGKGLEWISSISGSSRYIYYADFVKGRFTISRDNATNSLYLQMNSLRAEDTAVYYCVRSSITIFGGGMDVWGRGTLVTVSS
VL: QSVLTQPASVSGSPGQSITISCAGTSSDVGGYNYVSWYQQHPGKAPKLMIYEDSKRPSGVSNRFSGSKSGNTASLTISGLQAEDEADYYCSSYTTRSTRVFGGGTKLAVLG

target: T1, full-length human Siglec-8 (Siglec-8^FL) (human, UniProt Q9NYZ4 17-499); assay: flow cytometry on K562 cells expressing Siglec-8 FL (FIG. 9C)
T1 construct: whole, on cells; Expressed by lentiviral transduction on K562, RS4;11, TF-1, EOL-1 and other cells; the same id is used for Siglec-8 endogenously expressed on LUVA cells, HMC1.2 cells and primary human eosinophils; also called Siglec-8^Hu; SAF2
Procedure: (§1) FIGS. 9A-9D. Human Siglec-8 mAbs were tested flow cytometrically against (FIG. 9A) parental human lymphoid RS4; 11 cells (endogenously lacking Siglec-8 expression) and a subline engineered to express Siglec-8^FL, (FIG. 9B) parental human mast cell line, HMC1.2, enriched for expression of endogenous Siglec-8; and (FIG. 9C) parental human myeloid K562 (endogenously lacking Siglec-8 expression) and sublines of K562 cells engineered to express either Siglec-8^FL, Siglec-8^ΔE2, or Siglec-8^V-set; and (FIG. 9D) primary human eosinophils, as indicated. A negative control without primary mAbs was included, as was, in some experiments, a negative control with a non-binding primary mAb (13R4).

T1 sequence (Q9NYZ4 17-499): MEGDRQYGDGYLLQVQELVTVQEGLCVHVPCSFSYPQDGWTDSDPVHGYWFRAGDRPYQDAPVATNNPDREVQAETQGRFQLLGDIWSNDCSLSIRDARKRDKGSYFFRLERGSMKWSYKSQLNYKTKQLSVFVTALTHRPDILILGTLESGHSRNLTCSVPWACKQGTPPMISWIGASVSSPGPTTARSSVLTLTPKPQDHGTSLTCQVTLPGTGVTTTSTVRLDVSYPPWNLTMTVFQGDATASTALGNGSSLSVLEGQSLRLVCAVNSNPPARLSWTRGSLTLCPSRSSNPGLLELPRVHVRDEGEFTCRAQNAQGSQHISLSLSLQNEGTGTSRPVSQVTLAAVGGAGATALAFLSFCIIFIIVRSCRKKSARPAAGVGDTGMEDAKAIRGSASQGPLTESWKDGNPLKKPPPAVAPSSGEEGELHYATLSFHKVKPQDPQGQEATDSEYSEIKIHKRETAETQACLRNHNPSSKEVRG

**Q.** Does B1 bind?
**A.** binds

**Q.** Does B2 bind?
**A.** binds

**Q.** Does B3 bind?
**A.** binds

**Q.** Does B4 bind?
**A.** binds

**Q.** Does B5 bind?
**A.** binds

**Q.** Does B6 bind?
**A.** binds

**Q.** Does B7 bind?
**A.** binds

target: T1, full-length human Siglec-8 (Siglec-8^FL); assay: flow cytometry on Siglec-8-expressing cells, in some experiments of FIGS. 9A-9D
Procedure: as §1

**Q.** Does B8 bind?
**A.** no binding
